Experiments:
[1] = test system: TGFβ downstream tonic signaling; assay: TGFβ downstream tonic signaling in non-diseased rat BAL; type: in vivo
Excerpt: Indeed, data presented herein support this notion. […] Preferably, TGFβ antagonists for use in the treatment of such conditions exert their inhibitory activities only towards the disease-induced or disease-associated isoform, while preserving the function of the other isoforms that are normally expressed to mediate tonic signaling in the tissue. […] Alternatively or additionally, agents that target and block integrin-dependent activation of TGFβ may be capable of blocking only a subset of integrins responsible for disease-associated TGFβ1 activation, among numerous integrin types that are expressed by various cell types and play a role in the pathogenesis. Furthermore, even where such antagonists may selectively block integrin-mediated activation of the TGFβ1 isoform, it may be ineffective in blocking TGFβ1 activation triggered by other modes, such as protease-dependent activation. Accordingly, the isoform-specific inhibitors of TGFβ1 such as those described herein are aimed to prevent the activation step of TGFβ1 regardless of the particular mode of activation, while maintaining isoform selectivity.

[2] = literature reports (Frazier et al. 2007; Stauber et al. 2014, chronic ≥3 months); cited from earlier work
[3] = Stauber et al. 2014, chronic (≥3 months) administration; cited from earlier work
[4] = in vivo; cited from earlier work
huLTBP1 proTGFβ1 = huLTBP1 proTGFβ1 (Homo sapiens, UniProt P01137+Q14766); assay: Octet (BLI) binding, IgG captured on AHC tips, antigen at 100 nM; settings: Table 9, cycle 3, IgG1-agly
Chain of huLTBP1 proTGFβ1 (P01137 30-390): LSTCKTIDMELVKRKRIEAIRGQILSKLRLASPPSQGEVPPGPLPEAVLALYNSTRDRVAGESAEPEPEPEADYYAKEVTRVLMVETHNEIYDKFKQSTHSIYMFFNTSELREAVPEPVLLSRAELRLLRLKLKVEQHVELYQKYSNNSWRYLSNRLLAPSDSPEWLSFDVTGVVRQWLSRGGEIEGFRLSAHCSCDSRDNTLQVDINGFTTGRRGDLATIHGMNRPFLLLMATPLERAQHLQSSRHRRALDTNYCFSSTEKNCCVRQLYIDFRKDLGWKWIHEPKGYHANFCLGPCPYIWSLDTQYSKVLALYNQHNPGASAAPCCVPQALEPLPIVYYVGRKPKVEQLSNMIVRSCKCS
Chain of huLTBP1 proTGFβ1 (Q14766 347-1721 limits assumed): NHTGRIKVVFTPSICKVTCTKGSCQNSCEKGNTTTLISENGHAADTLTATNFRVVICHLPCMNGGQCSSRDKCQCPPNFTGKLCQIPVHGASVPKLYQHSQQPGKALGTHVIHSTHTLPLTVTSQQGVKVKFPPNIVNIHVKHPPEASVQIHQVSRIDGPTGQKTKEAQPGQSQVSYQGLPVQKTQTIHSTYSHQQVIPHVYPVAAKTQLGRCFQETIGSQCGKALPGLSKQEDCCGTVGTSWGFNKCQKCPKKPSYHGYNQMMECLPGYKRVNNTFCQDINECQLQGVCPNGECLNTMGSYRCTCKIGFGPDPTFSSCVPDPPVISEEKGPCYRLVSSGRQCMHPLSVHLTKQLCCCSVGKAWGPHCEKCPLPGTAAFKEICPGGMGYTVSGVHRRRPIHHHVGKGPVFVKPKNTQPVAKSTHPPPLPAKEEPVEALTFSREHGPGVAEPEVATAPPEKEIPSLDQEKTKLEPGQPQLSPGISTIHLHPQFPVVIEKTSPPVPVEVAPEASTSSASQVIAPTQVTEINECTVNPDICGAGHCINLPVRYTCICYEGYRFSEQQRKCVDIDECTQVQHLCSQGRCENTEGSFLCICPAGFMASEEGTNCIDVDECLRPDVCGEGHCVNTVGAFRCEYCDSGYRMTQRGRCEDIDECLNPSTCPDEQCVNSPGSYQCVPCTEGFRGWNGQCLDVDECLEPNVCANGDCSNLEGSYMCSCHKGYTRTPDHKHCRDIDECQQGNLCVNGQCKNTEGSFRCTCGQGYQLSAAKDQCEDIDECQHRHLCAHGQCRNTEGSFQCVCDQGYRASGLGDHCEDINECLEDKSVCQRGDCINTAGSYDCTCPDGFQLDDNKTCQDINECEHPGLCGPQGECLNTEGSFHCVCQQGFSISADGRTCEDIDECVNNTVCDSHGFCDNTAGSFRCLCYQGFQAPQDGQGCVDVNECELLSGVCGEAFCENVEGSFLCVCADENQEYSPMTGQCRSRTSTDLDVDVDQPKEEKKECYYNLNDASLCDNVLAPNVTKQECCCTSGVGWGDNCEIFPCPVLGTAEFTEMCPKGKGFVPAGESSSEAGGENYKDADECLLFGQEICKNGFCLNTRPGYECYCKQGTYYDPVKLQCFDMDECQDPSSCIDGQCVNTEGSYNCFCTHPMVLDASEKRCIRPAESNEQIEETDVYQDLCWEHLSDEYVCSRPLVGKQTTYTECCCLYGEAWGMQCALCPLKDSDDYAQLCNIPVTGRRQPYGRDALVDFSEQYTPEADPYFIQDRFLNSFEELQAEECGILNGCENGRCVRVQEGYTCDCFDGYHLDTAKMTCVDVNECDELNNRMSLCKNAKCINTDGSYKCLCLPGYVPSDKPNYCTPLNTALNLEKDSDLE
How it was run: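 Antibodies were captured on anti-human Fc biosensors at 1 μg/mL (~7 nM), to a maximum response of 1 nm. Antigen complex was run at a single 100 nM in 1× kinetics buffer, shaking at 1000 rpm. Association was 3 min and dissociation 3 min (5 min in later rounds), with KD from a local, full 1:1 fit.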

[5] = test system: male C57BL/6J mice on CDHFD (liver fibrosis); assay: Choline-deficient high fat diet (CDHFD) model of mouse NASH, liver hydroxyproline content; type: in vivo; settings: 15 mg/kg twice a week i.p., weeks 4 through 12 of CDHFD
Excerpt: The Choline deficient high fat diet (CDHFD) is an established diet-induced model of Non-Alcoholic steatohepatitis (NASH). In this model, male C57BL/6J mice are fed a choline deficient, 0.10% Methionine, high fat diet for 12 weeks. Three to six weeks after the start of the CDHFD, activation of pro-fibrotic processes can be detected through increased expression of α-smooth muscle actin (α-SMA) protein, a marker for activation of hepatic stellate cells, and elevated tissue hydroxyproline content reflecting increased collagen synthesis and deposition (Matsumoto et. al, Int J Exp Pathol. 2013 April; 94(2):93-103).
LTBP complex-specific antibodies were tested for their ability to inhibit and/or reduce the extent of liver fibrosis in mice in the CDHFD model as follows. An outline of the study is shown below in Table 21.
Animals in the test cohorts were on the CDHFD for the duration of the study. A separate cohort of mice (Group 1) were administered a regular chow diet as a study control. Antibodies SR-AB42 and SR-AB31 were administered to mice by intraperitoneal (i.p.) injection beginning at 4 weeks post start of the CDHFD. Animals were dosed at antibody test concentrations 15 mg/kg twice a week (i.e., 30 mg/kg/week) for a test duration of 8 weeks (i.e., weeks 4 through 12). […] Endpoint readout was hydroxyproline content. […]

huLTBP3 proTGFβ1 = huLTBP3 proTGFβ1 (Homo sapiens, UniProt P01137+Q9NS15); assay: Octet (BLI) binding, IgG captured on AHC tips, antigen at 100 nM; settings: Table 9, cycle 3, IgG1-agly
Chain of huLTBP3 proTGFβ1 (P01137 30-390): as the sequence (P01137 30-390) above
Chain of huLTBP3 proTGFβ1 (Q9NS15 44-1303): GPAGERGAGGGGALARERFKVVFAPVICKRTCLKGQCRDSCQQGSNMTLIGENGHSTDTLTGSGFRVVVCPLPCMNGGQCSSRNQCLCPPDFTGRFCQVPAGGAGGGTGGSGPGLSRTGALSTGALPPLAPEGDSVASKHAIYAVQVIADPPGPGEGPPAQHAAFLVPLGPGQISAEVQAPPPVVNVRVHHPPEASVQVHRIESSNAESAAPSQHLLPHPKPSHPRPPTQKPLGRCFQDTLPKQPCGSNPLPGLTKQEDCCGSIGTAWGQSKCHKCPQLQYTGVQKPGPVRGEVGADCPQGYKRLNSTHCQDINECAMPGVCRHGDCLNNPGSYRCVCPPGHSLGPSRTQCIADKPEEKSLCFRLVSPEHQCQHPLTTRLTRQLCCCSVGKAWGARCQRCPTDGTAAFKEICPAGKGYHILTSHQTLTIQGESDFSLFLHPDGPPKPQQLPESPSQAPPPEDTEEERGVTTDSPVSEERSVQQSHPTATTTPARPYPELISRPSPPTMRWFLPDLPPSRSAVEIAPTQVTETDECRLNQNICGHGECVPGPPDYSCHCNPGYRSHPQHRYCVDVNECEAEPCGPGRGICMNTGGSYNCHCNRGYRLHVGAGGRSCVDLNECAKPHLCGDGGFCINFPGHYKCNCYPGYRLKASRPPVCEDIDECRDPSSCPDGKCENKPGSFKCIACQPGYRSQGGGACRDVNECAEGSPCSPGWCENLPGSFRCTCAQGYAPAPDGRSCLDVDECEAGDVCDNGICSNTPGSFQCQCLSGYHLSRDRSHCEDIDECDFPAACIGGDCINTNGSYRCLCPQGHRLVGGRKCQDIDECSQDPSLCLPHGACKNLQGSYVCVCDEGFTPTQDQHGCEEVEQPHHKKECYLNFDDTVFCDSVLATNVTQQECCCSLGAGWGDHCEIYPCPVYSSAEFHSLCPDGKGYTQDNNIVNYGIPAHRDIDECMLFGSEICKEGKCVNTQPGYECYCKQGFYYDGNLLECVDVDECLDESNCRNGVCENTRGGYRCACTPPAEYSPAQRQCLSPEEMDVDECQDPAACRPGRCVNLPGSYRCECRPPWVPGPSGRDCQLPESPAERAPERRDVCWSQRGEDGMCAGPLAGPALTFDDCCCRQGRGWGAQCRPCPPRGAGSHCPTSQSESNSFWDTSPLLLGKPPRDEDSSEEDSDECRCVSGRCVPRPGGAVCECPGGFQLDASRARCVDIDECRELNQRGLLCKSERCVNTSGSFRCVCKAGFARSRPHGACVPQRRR
How it was run: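 Antibodies loaded at 1 μg/mL onto anti-human Fc sensors were exposed to each TGFβ1 complex at 100 nM in kinetics buffer. Association ran 3 min; dissociation was 3 min in one protocol and 5 min in another. KD came from a 1:1 fitting model.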

## c1ccc(-c2nn3c(c2-c2ccnc4cc(OCCN5CCOCC5)ccc24)CCC3)nc1 [LY2109761]
[1]
  TGFβ downstream tonic signaling: inhibit TGFβ downstream tonic signaling in non-diseased rat BAL

## Cc1cccc(-c2nn3c(c2-c2ccnc4ccc(C(N)=O)cc24)CCC3)n1 [LY2157299]
[2]
  Toxicity in rats: caused multiple organ toxicities involving the cardiovascular, gastrointestinal, immune, bone/cartilage, reproductive, and renal systems
[3]
  Toxicity in dogs: caused multiple organ toxicities involving the cardiovascular, gastrointestinal, immune, bone/cartilage, reproductive, and renal systems

## GC1008: a “pan” TGFβ antibody capable of neutralizing all human isoforms of TGFβ
[4]
  Exposure, DN Cmax, Human: DN Cmax ~(350 ng/mL) (ng/mL) mg
  Exposure, Half-life, Human: Half-life: 21.7 d

B1: SR-AB31: cycle 3 light chain-optimized antibody, lineage SR-AB22; CDRs SEQ ID NO: 124-129 (antibody, V domains shown)
VH: QVQLVESGGGVVQPGRSLRLSCAASGFTFRSYVMHWVRQAPGKGLEWVAVISHEGSLKYYADSVKGRFTISRDNSKNTLYLQMNSLRAEDTAVYYCAVPRIAARRGGFGYWGQGTLVTVSS
VL: NFMLTQPHSVSESPGKTVTISCTRSSGNIDNNYVQWYQQRPGSSPTTVIYEDNQRPSGVPDRFSGSIDSSSNSASLTISGLKTEDEADYYCQSYDFNNQGVVFGGGTKLTVL
huLTBP1 proTGFβ1; 1:1 fit
  Hu LTBP1-proTGFβ1 Kon: 240000 M⁻¹ s⁻¹
huLTBP1 proTGFβ1; 5-minute dissociation
  Hu LTBP1-proTGFβ1 Koff: 9.89e-05 s⁻¹
[5]
  Hydroxyproline (HYP) in liver tissue: inhibited the increase in HYP
huLTBP3 proTGFβ1; 1:1 fit
  Hu LTBP3-proTGFβ1 Kon: 308000 M⁻¹ s⁻¹
huLTBP3 proTGFβ1; 5-minute dissociation
  Hu LTBP3-proTGFβ1 Koff: 6.81e-05 s⁻¹

Reference: patent US11214614B2, “LTBP complex-specific inhibitors of TGFβ and uses thereof” (Scholar Rock, Inc., priority 2019, dated 2022)
